Reference: patent US8728980B2, “Peptide microarray and method of use” (The Regents of the University of California, priority 2011, dated 2014)
Non-standard residues stand in square brackets, D forms with d. Primed or numbered codes have the meaning given here. No end group written: not given here. Me3 = trimethylation of the lysine side chain; Me3(3) = trimethyl (trimethylated lysine); Lys(Me3) = C[N+](C)(C)CCCC[C@H](N)C(=O)O

molecular target: T1, Polycomb protein chromodomain (Drosophila melanogaster, UniProt P26017); test: Peptide microarray binding of GST-tagged Polycomb chromodomain; set-up: dose or concentration left out as unconfirmed; settings: Binder if at least two of three spots pass p-value cutoff 0.001 from background
T1 construct: The chromodomain (a.a. 1-90) of Polycomb protein was expressed as GST-tagged fusion protein; made in house
T1 sequence (P26017 1-90): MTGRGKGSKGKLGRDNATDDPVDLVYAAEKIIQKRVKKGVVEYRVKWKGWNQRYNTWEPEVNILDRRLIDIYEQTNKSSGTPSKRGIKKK
From the text: There are a total of 46 histone peptide sequences (9 a.a. long) with a single lysine-trimethylation site which are conserved between the human and fruit fly H2, H3 and H4 proteins (Table II). These were screened for Polycomb protein chromodomain binding by peptide microarray. Each peptide sequence was screened as triplets, and the fluorescence intensity was quantified with background subtraction individually for each spot from the microarray images by ImageJ^9 and the whole data set was fit to a mixed Gaussian distribution model (FIG. 8, Table III).
Twelve out of the 46 sequences were identified as positive binders under these criteria. Ten of these microarray-identified binders also yielded high mutation matrix score in an independent prediction (Table IV).
The chromodomain (a.a. 1-90) of Polycomb protein was expressed as GST-tagged fusion protein and purified as described in [65]. The purity of the protein was examined by SDS-PAGE electrophoresis followed by both Coomassie staining and western blot using an Anti-GST-HRP conjugate (Santa Cruz Biotechnology). The concentration of purified protein was determined by BCA assay (Amresco). A total of 46 trimethylated histone peptides were synthesized by Sigma Aldrich (desalted, mass spectrometry checked). The peptides were then printed as triplets onto glass slides (ArrayIt), together with a Cy3 marker and an anti-GST (mouse monoclonal) antibody (Thermo) as references.
The peptide microarray was rinsed with TBST buffer (25 mM Tris, 125 mM NaCl, 0.05% Tween-20, pH 8) followed by blocking with 5% non-fat milk in TBST (room temperature 1 hour or 4° C. overnight). The slide was then incubated at 4° C. with Polycomb-GST fusion protein at a final concentration of […] in 5% non-fat milk/TBST for 6 hours. After washing three times for 10 minutes each with TBST, the slide was incubated with an anti-GST mouse monoclonal IgG antibody (Thermo) at a final concentration of 1 μg/mL in 5% non-fat milk/TBST and shaken gently for 1 hour at room temperature. A secondary anti-mouse IgG Dylight-488 conjugated antibody (Thermo) was added to a final concentration of 0.1 μg/mL after three more cycles of 10 minutes washing with TBST. The slide was shaken for 1 hr at room temperature and washed three times with TBST.
The dried microarray slides were scanned using a Hamamatsu NanoZoomer 2.0HT Slide Scanning System (Neuroscience Light Microscopy Facility, UCSD). Data quantification were processed using the microarray processing software ImageJ^9, where the fluorescent intensity of a microarray spot was defined as its own intensity minus the background intensity around it on the scanned image.

Array Verification, NonBinder:
APATGGVKK (not fully specified (residue 8); also: trimethylated lysine, site not given here) [9-residue histone peptide, H3_DROME, trimethylated lysine site 36]
APSTGGVKK (also: trimethylated Lys, site not given here) [9-residue histone peptide, H33_DROME, trimethylated lysine site 36]
ARKSTGGKA (also: trimethylated Lys, site not given here) [9-residue histone peptide, H3_DROME, trimethylated lysine site 14]
DNIQGITKP (DNIQGIT[Lys(Me3)]P) [9-residue histone peptide, H4_DROME, trimethylated lysine site 31]
EELDSLIKA (EELDSLI[Lys(Me3)]A)
EETRGVLKV (EETRGVL[Lys(Me3)]V) [9-residue histone peptide, H4_DROME, trimethylated lysine site 59]
ELAGNASKD (ELAGNASK(Me3(3))D)
GKDSGKAKA (not fully specified (residue 8); also: trimethylated lysine, site not given here)
GLGKGGAKR [9-residue histone peptide, H4_DROME, trimethylated lysine site 16]
GNAARDNKK (also: trimethylated Lys, site not given here)
GNASKDLKV (not fully specified (residue 8); also: trimethylated lysine, site not given here)
GVIPHIHKS (GVIPHIHK(Me3(3))S)
HAVSEGTKA (HAVSEGTK(Me3(3))A)
IHKSLIGKK (not fully specified (residue 8); also: trimethylated lysine, site not given here)
IYIYKVLKQ (also: trimethylated Lys, site not given here)
KAGKDSGKA (not fully specified (residue 8); also: trimethylated lysine, site not given here)
KGGKGLGKG (not fully specified (residue 8); also: trimethylated lysine, site not given here) [9-residue histone peptide, H4_DROME, trimethylated lysine site 12]
KRVTIMPKD (not fully specified (residue 8); also: trimethylated lysine, site not given here) [9-residue histone peptide, H3_DROME, trimethylated lysine site 122]
LARRGGVKR (LARRGGVK(Me3(3))R) [9-residue histone peptide, H4_DROME, trimethylated lysine site 44]
LLPGELAKH (LLPGELAK(Me3(3))H)
MAGGKAGKD (not fully specified (residue 8); also: trimethylated lysine, site not given here)
NAARDNKKT (also: trimethylated Lys, site not given here)
NLCAIHAKR (NLCAIHAK(Me3(3))R) [9-residue histone peptide, H3_DROME, trimethylated lysine site 115]
PATGGVKKP (not fully specified (residue 8); also: trimethylated lysine, site not given here) [9-residue histone peptide, H3_DROME, trimethylated lysine site 37]
PDTGISSKA (PDTGISSK(Me3(3))A)
PSTGGVKKP (also: trimethylated Lys, site not given here) [9-residue histone peptide, H33_DROME, trimethylated lysine site 37]
QAVLLPKKT (QAVLLPKK(Me3)T)
REIAQDFKT (REIAQDFK(Me3(3))T) [9-residue histone peptide, H3_DROME, trimethylated lysine site 79]
RNDEELNKL (RNDEELNK(Me3(3))L)
SRLAHYNKR (SRLAHYNK(Me3(3))R)
STELLIRKL (STELLIRK(Me3(3))L) [9-residue histone peptide, H3_DROME, trimethylated lysine site 64]
TGGKAPRKQ (also: trimethylated Lys, site not given here) [9-residue histone peptide, H3_DROME, trimethylated lysine site 18]
VTYTEHAKR (VTYTEHAK(Me3(3))R) [9-residue histone peptide, H4_DROME, trimethylated lysine site 77]
YTEHAKRKT (YTEHAKRK(Me3)T) [9-residue histone peptide, H4_DROME, trimethylated lysine site 79]

Array Verification, Binder:
ASKDLKVKR (not fully specified (residue 8); also: trimethylated lysine, site not given here)
DSGKAKAKA (not fully specified (residue 8); also: trimethylated lysine, site not given here)
EGTKAVTKY (also: trimethylated Lys, site not given here)
GGAKRHRKV (also: trimethylated lysine, site not given here) [9-residue histone peptide, H4_DROME, trimethylated lysine site 20]
GRIHRHLKS (GRIHRHLK(Me3(3))S)
IQAVLLPKK (not fully specified (residue 8); also: trimethylated lysine, site not given here)
MDVVYALKR (MDVVYALK(Me3(3))R) [9-residue histone peptide, H4_DROME, trimethylated lysine site 91]
PRKQLATKA (PRKQLATK(Me3)A) [9-residue histone peptide, H3_DROME, trimethylated lysine site 23]
REIRRYQKS (REIRRYQK(Me3(3))S) [9-residue histone peptide, H3_DROME, trimethylated lysine site 56]
RIHRLLRKG (RIHRLLRK(Me3(3))G)
RTKQTARKS (also: trimethylated lysine, site not given here) [9-residue histone peptide, H3_DROME, trimethylated lysine site 9]
